Target: T1, human GDF15 receptor (GFRAL) stably over-expressed on SK-N-AS cells (human, UniProt Q6UXV0 19-394)
T1 sequence (looked up): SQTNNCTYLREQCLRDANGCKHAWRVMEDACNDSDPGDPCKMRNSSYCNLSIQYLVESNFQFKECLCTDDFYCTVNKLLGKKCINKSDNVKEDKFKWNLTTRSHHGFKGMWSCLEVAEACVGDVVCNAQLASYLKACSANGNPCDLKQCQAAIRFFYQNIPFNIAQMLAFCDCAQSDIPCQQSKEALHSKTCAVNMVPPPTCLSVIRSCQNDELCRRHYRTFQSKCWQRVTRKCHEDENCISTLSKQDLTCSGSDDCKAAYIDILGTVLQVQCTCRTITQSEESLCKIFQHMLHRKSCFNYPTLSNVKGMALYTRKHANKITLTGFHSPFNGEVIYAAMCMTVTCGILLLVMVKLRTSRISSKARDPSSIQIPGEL
Assay: cell-based or functional assay

B1: Native GDF15 (ligand, UniProt Q99988 197-308, looked up)
chain: ARNGDHCPLGPGRCCRLHTVRASLEDLGWADWVLSPREVQVTMCIGACPSQFRAANMHAQIKTSLHRLKPDTVPAPCCVPASYNPMVLIQKTDTGVSLQTYDDLLAKDCHCI
B1 was tested, and the “EC50, cell-based pAKT (phospho-AKT Ser473) assay” value was 0.153 nM.

Source: patent US20220315633A1 (Janssen / Centocor, published 2022)
